Results taken from paper PMC3404065.

Assays:
[1] = molecular target: F-actin polymerised from purified G-actin (Cytoskeleton APHL99-A) (UniProt P60709); assay: co-sedimentation; supernatant-depletion method, equilibrium binding to ATP/ADP-Pi-F-actin (filaments from ATP-G-actin); GST-ABD left in the supernatant by anti-GST immunoblot and densitometry; room temperature
[2] = molecular target: F-actin polymerised from purified G-actin (Cytoskeleton APHL99-A) (UniProt P60709); assay: co-sedimentation; high-speed F-actin co-sedimentation; F-actin polymerised from Mg-ATP-G-actin (50 mM KCl, 1 mM MgCl2, 1 mM ATP); 30 min at room temperature, Airfuge ~100,000 x g 30 min; supernatant and pellet on SDS-PAGE, Coomassie Blue or silver stain
[3] = molecular target: F-actin polymerised from purified G-actin (Cytoskeleton APHL99-A) (UniProt P60709); assay: co-sedimentation; supernatant-depletion method, equilibrium binding to ADP-F-actin (filaments from ADP-G-actin made with 20 U/mL hexokinase and 1 mM glucose); GST-ABD left in the supernatant by anti-GST immunoblot and densitometry

Kd [1]: 53 nM
stoichiometry N ([2]; scale: actin per GST-ABD): 1.4
stoichiometry N ([2]; scale: ratio GST-ABD to actin, after correction for the 15-20% GST cleavage product): 1
Kd [3]: 4700 nM
Substance: GST-TEM4 81-135 (GST-ABD) (from UniProt Q96PE2 81-135) (domain or fragment)
